Data on two molecules can be found in article doi:10.1101/2024.02.20.581209 (bioRxiv, 2024).

Assay [1] concerns the target RomR-REC^141 (Myxococcus xanthus). Description: SEC-MALS. (In general: SEC sorts molecules by how far they enter the pores of the column.)
Assay [2] has the same target. Description: ITC.
Assay [3] concerns the target RomR-REC^125 (Myxococcus xanthus). The assay can be described thus: ITC.
In a further assay the target is T1, MglA (Myxococcus xanthus, UniProt Q1DB04 1-195).
T1 sequence: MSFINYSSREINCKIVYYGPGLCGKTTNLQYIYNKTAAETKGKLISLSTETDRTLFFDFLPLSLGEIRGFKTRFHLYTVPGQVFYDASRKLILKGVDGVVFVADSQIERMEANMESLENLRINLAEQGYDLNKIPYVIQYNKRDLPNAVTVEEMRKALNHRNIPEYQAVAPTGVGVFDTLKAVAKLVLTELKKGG
Description: ITC.

On to “RomX (hexahistidine-tagged, end of the tag not told for this experiment) (natural protein)”, for which the stoichiometry N in assay [1] came out at 1.

B1: RomX (N-terminal hexahistidine tagged construct) (natural protein, M. xanthus)
chain: MTDEEKVKAMRLARAIASDISLYNEQKIIKGIEQDNLFEVLKEELEEGRELYKSRVSQEIFTKMNFFERAINDIVLRSKAHVKSKIW
As to B1, the Kd in assay [2] was found to be 1.2 µM; in assay [3] it was 1.14 µM; with MglA, 4.8 µM. The values for the stoichiometry N (in assay [2]; in assay [3]; with MglA) were 1.2, 1.3 and 1.1, respectively.

Usually stoichiometry N stands for the number of molecules, sites or subunits per partner or assembly. Usually Kd stands for the equilibrium constant for the complex coming apart. A lower Kd goes with a tighter complex.
